These results are taken from the supplement of paper PMC11246515.

± gives the standard deviation of the averaged measurements.

A short description of this data set: total protein half-life in vivo (active degradation + dilution); higher = more stable protein.
[1] abbreviates: E. coli NCM3722 delta-clpP delta-lon delta-hslV, growth: N-lim chemostat, doubling time 6 h.
Where [2] appears, read: E. coli NCM3722 delta-clpP, growth: N-lim chemostat, doubling time 6 h.
Where [3] appears, read: E. coli NCM3722 delta-hslV, growth: N-lim chemostat, doubling time 6 h.
[4] abbreviates: E. coli NCM3722 delta-lon, growth: N-lim chemostat, doubling time 6 h.
Where [5] appears, read: E. coli NCM3722 delta-smpB, growth: N-lim chemostat, doubling time 6 h.
The mark [6] stands for this setting: wild type E. coli NCM3722, growth: C-lim chemostat, doubling time 3 h.
Where [7] appears, read: wild type E. coli NCM3722, growth: C-lim chemostat, doubling time 6 h.
[8] abbreviates: wild type E. coli NCM3722, growth: C-lim chemostat, doubling time 12 h.
[9] abbreviates: wild type E. coli NCM3722, growth: N-lim chemostat, doubling time 6 h.
The mark [10] stands for this setting: wild type E. coli NCM3722, growth: N-lim chemostat, doubling time 12 h.
Where [11] appears, read: wild type E. coli NCM3722, growth: P-lim chemostat, doubling time 6 h.
Where [12] appears, read: wild type E. coli NCM3722, growth: P-lim chemostat, doubling time 12 h.

“MSTQEATLQQPLLQAIDLKKHYPVKKGMFAPERLVKALDGVSFNLERGKTLAVVGESGCGKSTLGRLLTMIEMPTGGELYYQGQDLLKHDPQAQKLRRQKIQIVFQNPYGSLNPRKKVGQILEEPLLINTSLSKEQRREKALSMMAKVGLKTEHYDRYPHMFSGGQRQRIAIARGLMLDPDVVIADEPVSALDVSVRAQVLNLMMDLQQELGLSYVFISHDLSVVEHIADEVMVMYLGRCVEKGTKDQIFNNPRHPYTQALLSATPRLNPDDRRERIKLSGELPSPLNPPPGCAFNARCRRRFGPCTQLQPQLKDYGGQLVACFAVDQDENPQR”: the “total protein half-life in vivo” value reads like this: under setting [1], 6.25 ± 0.25 h; under setting [2], 5.92 ± 0.29 h; under setting [3], 6.41 ± 0.085 h; under setting [4], 6.11 ± 0.94 h; under setting [5], 5.605 ± 0.031 h; under setting [6], 2.88 ± 0.33 h. In addition, the “total protein half-life in vivo” value runs as follows: under setting [7], 6.28 ± 0.43 h; under setting [8], 11.6 ± 0.25 h; under setting [9], 6.08 ± 0.62 h; under setting [10], 13.1 ± 0.71 h; under setting [11], 6.16 ± 0.27 h; under setting [12], 13.1 ± 0.21 h.
As for “MSKVCIIAWVYGRVQGVGFRYTTQYEAKRLGLTGYAKNLDDGSVEVVACGEEGQVEKLMQWLKSGGPRSARVERVLSEPHHPSGELTDFRIR [P0AB65]”, the “total protein half-life in vivo” value by setting is: under setting [1], 6.07 ± 0.29 h; under setting [2], 5.82 ± 0.093 h; under setting [3], 5.59 ± 0.28 h; under setting [4], 5.89 ± 0.12 h; under setting [5], 5.9 ± 0.89 h; under setting [6], 3.38 ± 0.23 h. The “total protein half-life in vivo” value is 5.96 ± 0.08 h under setting [7], 8.66 h under setting [8], 5.32 ± 0.17 h under setting [9] and 9.77 ± 1.8 h under setting [10].
As for “MLEQMGIAAKQASYKLAQLSSREKNRVLEKIADELEAQSEIILNANAQDVADARANGLSEAMLDRLALTPARLKGIADDVRQVCNLADPVGQVIDGGVLDSGLRLERRRVPLGVIGVIYEARPNVTVDVASLCLKTGNAVILRGGKETCRTNAATVAVIQDALKSCGLPAGAVQAIDNPDRALVSEMLRMDKYIDMLIPRGGAGLHKLCREQSTIPVITGGIGVCHIYVDESVEIAEALKVIVNAKTQRPSTCNTVETLLVNKNIADSFLPALSKQMAESGVTLHADAAALAQLQAGPAKVVAVKAEEYDDEFLSLDLNVKIVSDLDDAIAHIREHGTQHSDAILTRDMRNAQRFVNEVDSSAVYVNASTRFTDGGQFGLGAEVAVSTQKLHARGPMGLEALTTYKWIGIGDYTIRA”, the “total protein half-life in vivo” value by setting is: under setting [1], 5.127 ± 0.031 h; under setting [2], 4.65 ± 0.2 h; under setting [3], 4.64 ± 0.14 h; under setting [4], 4.75 ± 0.29 h; under setting [5], 4.5 ± 0.067 h; under setting [6], 3.12 ± 0.3 h. For the same sequence, the “total protein half-life in vivo” value reads like this: under setting [7], 5.68 ± 0.2 h; under setting [8], 10.9 ± 0.47 h; under setting [9], 4.65 ± 0.12 h; under setting [10], 7.82 ± 0.18 h; under setting [11], 5.31 ± 0.65 h; under setting [12], 12.15 ± 0.096 h.
On to “MELLSEYGLFLAKIVTVVLAIAAIAAIIVNVAQRNKRQRGELRVNNLSEQYKEMKEELAAALMDSHQQKQWHKAQKKKHKQEAKAAKAKAKLGEVATDSKPRVWVLDFKGSMDAHEVNSLREEITAVLAAFKPQDQVVLRLESPGGMVHGYGLAASQLQRLRDKNIPLTVTVDKVAASGGYMMACVADKIVSAPFAIVGSIGVVAQMPNFNRFLKSKDIDIELHTAGQYKRTLTLLGENTEEGREKFREELNETHQLFKDFVKRMRPSLDIEQVATGEHWYGQQAVEKGLVDEINTSDEVILSLMEGREVVNVRYMQRKRLIDRFTGSAAESADRLLLRWWQRGQKPLM [P0AG14]”, for which the “total protein half-life in vivo” value reads like this: under setting [1], 6.52 ± 0.91 h; under setting [2], 6.18 ± 0.14 h; under setting [3], 5.91 ± 0.15 h; under setting [4], 6.12 ± 0.27 h; under setting [5], 6.07 ± 0.87 h; under setting [6], 3.11 ± 0.099 h. For the same sequence, the “total protein half-life in vivo” value reads like this: under setting [8], 11.3 ± 0.26 h; under setting [9], 6.076 ± 0.021 h; under setting [10], 14.1 ± 1.8 h; under setting [11], 5.6 ± 0.61 h; under setting [12], 11.4 ± 1.4 h.
As to “MATVNKQAIAAAFGRAAAHYEQHADLQRQSADALLAMLPQRKYTHVLDAGCGPGWMSRHWRERHAQVTALDLSPPMLVQARQKDAADHYLAGDIESLPLATATFDLAWSNLAVQWCGNLSTALRELYRVVRPKGVVAFTTLVQGSLPELHQAWQAVDERPHANRFLPPDEIEQSLNGVHYQHHIQPITLWFDDALSAMRSLKGIGATHLHEGRDPRILTRSQLQRLQLAWPQQQGRYPLTYHLFLGVIARE”, the “total protein half-life in vivo” value was determined as 4.79 ± 0.22 h under setting [1], 2.85 ± 0.37 h under setting [2], 0.556 h under setting [5] and 1.13 h under setting [10].
As to “MKILVIGPSWVGDMMMSQSLYRTLQARYPQAIIDVMAPAWCRPLLSRMPEVNEAIPMPLGHGALEIGERRKLGHSLREKRYDRAYVLPNSFKSALVPFFAGIPHRTGWRGEMRYGLLNDVRVLDKEAWPLMVERYIALAYDKGIMRTAQDLPQPLLWPQLQVSEGEKSYTCNQFSLSSERPMIGFCPGAEFGPAKRWPHYHYAELAKQLIDEGYQVVLFGSAKDHEAGNEILAALNTEQQAWCRNLAGETQLDQAVILIAACKAIVTNDSGLMHVAAALNRPLVALYGPSSPDFTPPLSHKARVIRLITGYHKVRKGDAAEGYHQSLIDITPQRVLEELNALLLQEEA”, the “total protein half-life in vivo” value came to 6.06 ± 0.088 h under setting [1]; 6.69 ± 0.98 h under setting [2]; 5.71 ± 0.23 h under setting [3]; 5.22 ± 0.11 h under setting [4]; 6.11 ± 0.48 h under setting [5]; 3.24 ± 0.14 h under setting [6]. The “total protein half-life in vivo” value runs as follows: under setting [7], 5.58 ± 0.14 h; under setting [8], 11.7 ± 2.8 h; under setting [9], 6.4 ± 0.97 h; under setting [10], 11.1 ± 1.8 h; under setting [11], 6.54 ± 0.24 h; under setting [12], 11.7 ± 1.7 h.
